Results reported in paper PMC6739210.

What was measured:
[1] = target: Mortalin/GRP-75/mt-hsp70 (human (endogenous in MCF-7, MDA-MB-231 and K562)) (UniProt P38646)
[2] = target: Mortalin/GRP-75/mt-hsp70 (human (endogenous in MCF-7, MDA-MB-231 and K562)) (UniProt P38646); remark: listed apart in the source

Sequence of UniProt P38646 (P38646 47-679): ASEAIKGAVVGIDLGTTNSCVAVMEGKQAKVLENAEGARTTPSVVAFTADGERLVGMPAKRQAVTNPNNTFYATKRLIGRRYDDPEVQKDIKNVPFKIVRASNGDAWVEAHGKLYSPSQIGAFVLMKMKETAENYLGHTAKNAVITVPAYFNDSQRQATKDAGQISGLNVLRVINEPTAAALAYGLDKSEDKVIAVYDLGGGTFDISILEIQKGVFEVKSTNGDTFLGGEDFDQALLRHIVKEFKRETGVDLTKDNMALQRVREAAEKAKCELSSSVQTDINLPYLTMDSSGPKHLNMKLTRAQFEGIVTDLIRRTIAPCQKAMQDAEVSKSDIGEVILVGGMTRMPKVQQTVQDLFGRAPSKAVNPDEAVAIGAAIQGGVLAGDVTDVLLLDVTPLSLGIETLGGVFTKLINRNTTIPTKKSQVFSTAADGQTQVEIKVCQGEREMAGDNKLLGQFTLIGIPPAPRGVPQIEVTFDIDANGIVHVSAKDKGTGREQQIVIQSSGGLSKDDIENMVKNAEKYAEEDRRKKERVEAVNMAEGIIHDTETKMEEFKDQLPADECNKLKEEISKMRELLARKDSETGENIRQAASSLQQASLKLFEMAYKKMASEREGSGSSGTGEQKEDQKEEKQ

SMRwt-CPP peptide
complement-mediated cytotoxicity (trypan blue), percent cell death of K562 cells treated with 1120 nM peptide, anti-CXCR4 antibody, minus or plus normal human serum [1]: 23% | complement-mediated cytotoxicity (trypan blue), percent cell death of MCF-7 cells treated with 300 nM peptide, anti-CXCR4 antibody, minus or plus normal human serum [1]: 29% | complement-mediated cytotoxicity (trypan blue), percent cell death of MDA-MB-231 cells treated with 540 nM peptide, anti-CXCR4 antibody, minus or plus normal human serum [1]: 9% | complement C9 level in extracellular vesicles of K562 cells after peptide and NHS, Western blot, compared to the NHS-treated controls [2]: 24.3% | complement C9 level in extracellular vesicles of MCF-7 cells after peptide and NHS, Western blot, compared to the NHS-treated controls [2]: 37.5% | complement C9 level in extracellular vesicles of MDA-MB-231 cells after peptide and NHS, Western blot, compared to the NHS-treated controls [2]: 56.3% | mortalin level in extracellular vesicles of K562 cells after peptide and NHS, Western blot, compared to the NHS-treated controls [2]: 34.4% | mortalin level in extracellular vesicles of MCF-7 cells after peptide and NHS, Western blot, compared to the NHS-treated controls [2]: 48.4% | mortalin level in extracellular vesicles of MDA-MB-231 cells after peptide and NHS, Western blot, compared to the NHS-treated controls [2]: 27.5%
